From US20110311522A1

Legend:
Assay in all cases: cell-based or functional assay
[1] = target: hemagglutinin (HA) of virus strain Ck/HK/Yu22/02 (H5N1) (H5N1 avian influenza virus, strain Ck/HK/Yu22/02)
[2] = target: 14 strains of non-H5 viruses (H1~H13, Chicken NDV)
[3] = target: H5 virus strain (fifteen strains of H5N1 viruses)
[4] = target: hemagglutinin (HA) of H5N1 virus strain FJ1.5 (H5N1 avian influenza virus, strain FJ1.5)
[5] = target: hemagglutinin (HA) of H5N1 virus strain GD1.1 (H5N1 avian influenza virus, strain GD1.1)
[6] = target: hemagglutinin (HA) of H5N1 virus strain GD3.1 (H5N1 avian influenza virus, strain GD3.1)
[7] = target: hemagglutinin (HA) of H5N1 virus strain GD4.1 (H5N1 avian influenza virus, strain GD4.1)
[8] = target: hemagglutinin (HA) of H5N1 virus strain HN3.1 (H5N1 avian influenza virus, strain HN3.1)
[9] = target: hemagglutinin (HA) of H5N1 virus strain IDN1.1 (H5N1 avian influenza virus, strain IDN1.1)
[10] = target: hemagglutinin (HA) of H5N1 virus strain IDN3.1 (H5N1 avian influenza virus, strain IDN3.1)
[11] = target: hemagglutinin (HA) of H5N1 virus strain IDN6.1 (H5N1 avian influenza virus, strain IDN6.1)
[12] = target: hemagglutinin (HA) of H5N1 virus strain IDN8.1 (H5N1 avian influenza virus, strain IDN8.1)
[13] = target: hemagglutinin (HA) of H5N1 virus strain Mixed1.1 (H5N1 avian influenza virus, strain Mixed1.1)
[14] = target: hemagglutinin (HA) of H5N1 virus strain QH1.1 (H5N1 avian influenza virus, strain QH1.1)
[15] = target: hemagglutinin (HA) of H5N1 virus strain VNM2-2.1 (H5N1 avian influenza virus, strain VNM2-2.1)
[16] = target: hemagglutinin (HA) of H5N1 virus strain VTM1.1 (H5N1 avian influenza virus, strain VTM1.1)
[17] = target: hemagglutinin (HA) of H5N1 virus strain VTM4.1 (H5N1 avian influenza virus, strain VTM4.1)
[18] = target: hemagglutinin (HA) of H5N1 virus strain YN2.1 (H5N1 avian influenza virus, strain YN2.1)
[19] = target: hemagglutinin (HA) of H5N1 virus strain A1 (H5N1 avian influenza virus, strain A1)
[20] = target: hemagglutinin (HA) of H5N1 virus strain A2 (H5N1 avian influenza virus, strain A2)
[21] = target: hemagglutinin (HA) of H5N1 virus strain A3 (H5N1 avian influenza virus, strain A3)
[22] = target: hemagglutinin (HA) of H5N1 virus strain A6 (H5N1 avian influenza virus, strain A6)
[23] = target: hemagglutinin (HA) of H5N1 virus strain A7 (H5N1 avian influenza virus, strain A7)
[24] = target: hemagglutinin (HA) of H5N1 virus strain A8 (H5N1 avian influenza virus, strain A8)
[25] = target: hemagglutinin (HA) of H5N1 virus strain B1 (H5N1 avian influenza virus, strain B1)
[26] = target: hemagglutinin (HA) of H5N1 virus strain B3 (H5N1 avian influenza virus, strain B3)
[27] = target: hemagglutinin (HA) of H5N1 virus strain B4 (H5N1 avian influenza virus, strain B4)
[28] = target: hemagglutinin (HA) of H5N1 virus strain B6 (H5N1 avian influenza virus, strain B6)
[29] = target: hemagglutinin (HA) of H5N1 virus strain B7 (H5N1 avian influenza virus, strain B7)
[30] = target: hemagglutinin (HA) of H5N1 virus strain B8 (H5N1 avian influenza virus, strain B8)
[31] = target: hemagglutinin (HA) of H5N1 virus strain C2 (H5N1 avian influenza virus, strain C2)
[32] = target: hemagglutinin (HA) of H5N1 virus strain C3 (H5N1 avian influenza virus, strain C3)
[33] = target: hemagglutinin (HA) of H5N1 virus strain D1 (H5N1 avian influenza virus, strain D1)
[34] = target: hemagglutinin (HA) of H5N1 virus strain D2 (H5N1 avian influenza virus, strain D2)
[35] = target: hemagglutinin (HA) of H5N1 virus strain D3 (H5N1 avian influenza virus, strain D3)
[36] = target: hemagglutinin (HA) of H5N1 virus strain E1 (H5N1 avian influenza virus, strain E1)
[37] = target: hemagglutinin (HA) of H5N1 virus strain E2 (H5N1 avian influenza virus, strain E2)
[38] = target: hemagglutinin (HA) of H5N1 virus strain F2 (H5N1 avian influenza virus, strain F2)
[39] = target: hemagglutinin (HA) of H5N1 virus strain F3 (H5N1 avian influenza virus, strain F3)
[40] = target: hemagglutinin (HA) of H5N1 virus strain G1 (H5N1 avian influenza virus, strain G1)
[41] = target: hemagglutinin (HA) of H5N1 virus strain H2 (H5N1 avian influenza virus, strain H2)
[42] = target: hemagglutinin (HA) of H5N1 virus strain F4 (H5N1 avian influenza virus, strain F4)

B1: 8G9 chimeric antibody (antibody, V domains shown)
VH: QVQLQQPGVELVRPGASVKLSCKASGYTFTSFWMNWVKQRPDQGLEWIGRIDPYDSETHYNQKFKDKAILTVDKSSSTAYMQLSSLTSEDSAVYYCGRGIATLMVLPDYWGQGTSVTVSS
VL: DILMTQSPSSMSVSLGDTVSITCHASQDISSNMGWLQQKPGKSLKGLIYHGTNLEDGVPSRFSGSGSGPDYSLTISSLESEDFADYYCVQYIQFPWTFGGGTKLEIKR
In the case of B1, the hemagglutination inhibition (HI) activity (fold dilution) [1] is reported as 16.

B2: monoclonal antibody 20A11 (antibody, V domains shown)
VH: QVQLQQSGAELMKPGASVKISCKATGYTFSGHWIEWVKQRPGHGLEWIGEILPGSGNIHYNEKFKGKATFAADTSSNTAYMQLSSLTSEDSAVYYCARLGTTAVERDWYFDVWGQGTSVTVSS
VL: DIVMTQSQKFMSASVGDRVSVTCKASQNVGTHLAWYQQKPGQSPKALIYSASYRYSGVPDRFTGSGSGTDFTLTISNVQSGDLADYFCQQYNNFPLTFGAGTKLEIKR
For B2, the Positive number/total virus number, hemagglutination inhibition assay (of 14 virus strains positive) [2] was 0, the Positive number/total virus number, hemagglutination inhibition assay (of 15 virus strains positive) [3] was 15 and the Hamaglutinin inhibition titer [4] was 12800 titer. The Neutralization titer [4] was 12800 titer, the Hamaglutinin inhibition titer [5] was 12800 titer and the Neutralization titer [5] was 12800 titer. The Hamaglutinin inhibition titer [6] was 12800 titer, the Neutralization titer [6] was 12800 titer and the Hamaglutinin inhibition titer [7] was 12800 titer. It also gave a Neutralization titer [7] of 12800 titer, a Hamaglutinin inhibition titer [8] of 12800 titer and a Neutralization titer [8] of 6400 titer. For the same binder, the Hamaglutinin inhibition titer [9] was 12800 titer, the Neutralization titer [9] was 12800 titer and the Hamaglutinin inhibition titer [10] was 12800 titer. The Neutralization titer [10] was 12800 titer, the Hamaglutinin inhibition titer [11] was 12800 titer and the Neutralization titer [11] was 12800 titer. It also gave a Hamaglutinin inhibition titer [12] of 12800 titer, a Neutralization titer [12] of 12800 titer and a Hamaglutinin inhibition titer [13] of 12800 titer. For the same binder, the Neutralization titer [13] was 12800 titer, the Hamaglutinin inhibition titer [14] was 12800 titer and the Neutralization titer [14] was 12800 titer. The Hamaglutinin inhibition titer [15] was 12800 titer, the Neutralization titer [15] was 12800 titer and the Hamaglutinin inhibition titer [16] was 12800 titer. The Neutralization titer [16] was 12800 titer, the Hamaglutinin inhibition titer [17] was 12800 titer and the Neutralization titer [17] was 12800 titer. The Hamaglutinin inhibition titer [18] was 12800 titer and the Neutralization titer [18] was 12800 titer.

B3: 13D4 chimeric antibody LV (antibody, V domains shown)
VH: QVQLQQSGAELMKPGASVKISCKATGYTFSGHWIEWVKQRPGHGLEWIGEILPGSGNIHYNEKFKGKATFAADTSSNTAYMQLSSLTSEDSAVYYCARLGTTAVERDWYFDVWGQGTLVTVSS
VL: DIVMTQSQKFMSASVGDRVSVTCKASQNVGTHLAWYQQKPGQSPKALIYSASYRYSGVPDRFTGSGSGTDFTLTISNVQSGDLADYFCQQYNNFPLTFGAGTKLEIKR
Work on B3 yielded an HI titer (hemagglutinin inhibition assay) (n (HI titer = 2^n)) [19] of over 8, an HI titer (hemagglutinin inhibition assay) (n (HI titer = 2^n)) [20] of 7 and an HI titer (hemagglutinin inhibition assay) (n (HI titer = 2^n)) [21] of 6. For the same binder, the HI titer (hemagglutinin inhibition assay) (n (HI titer = 2^n)) [22] was 6.5, the HI titer (hemagglutinin inhibition assay) (n (HI titer = 2^n)) [23] was 4 and the HI titer (hemagglutinin inhibition assay) (n (HI titer = 2^n)) [24] was 7. The HI titer (hemagglutinin inhibition assay) (n (HI titer = 2^n)) [25] was over 8, the HI titer (hemagglutinin inhibition assay) (n (HI titer = 2^n)) [26] was 2 and the HI titer (hemagglutinin inhibition assay) (n (HI titer = 2^n)) [27] was 4. The HI titer (hemagglutinin inhibition assay) (n (HI titer = 2^n)) [28] was over 8, the HI titer (hemagglutinin inhibition assay) (n (HI titer = 2^n)) [29] was 6 and the HI titer (hemagglutinin inhibition assay) (n (HI titer = 2^n)) [30] was 4. It also gave an HI titer (hemagglutinin inhibition assay) (n (HI titer = 2^n)) [31] of 3, an HI titer (hemagglutinin inhibition assay) (n (HI titer = 2^n)) [32] of 4 and an HI titer (hemagglutinin inhibition assay) (n (HI titer = 2^n)) [33] of 4. For the same binder, the HI titer (hemagglutinin inhibition assay) (n (HI titer = 2^n)) [34] was 4, the HI titer (hemagglutinin inhibition assay) (n (HI titer = 2^n)) [35] was 4 and the HI titer (hemagglutinin inhibition assay) (n (HI titer = 2^n)) [36] was 5.5. It also gave an HI titer (hemagglutinin inhibition assay) (n (HI titer = 2^n)) [37] of 3, an HI titer (hemagglutinin inhibition assay) (n (HI titer = 2^n)) [38] of 5.5 and an HI titer (hemagglutinin inhibition assay) (n (HI titer = 2^n)) [39] of 6. The HI titer (hemagglutinin inhibition assay) (n (HI titer = 2^n)) [40] was 2 and the HI titer (hemagglutinin inhibition assay) (n (HI titer = 2^n)) [41] was 3.

B4: 13D4 chimeric antibody SV (antibody, V domains shown)
VH: QVQLQQSGAELMKPGASVKISCKATGYTFSGHWIEWVKQRPGHGLEWIGEILPGSGNIHYNEKFKGKATFAADTSSNTAYMQLSSLTSEDSAVYYCARLGTTAVERDWYFDVWGQGTSVTVSS
VL: DIVMTQSQKFMSASVGDRVSVTCKASQNVGTHLAWYQQKPGQSPKALIYSASYRYSGVPDRFTGSGSGTDFTLTISNVQSGDLADYFCQQYNNFPLTFGAGTKLEIKR
Work on B4 yielded an HI titer (hemagglutinin inhibition assay) (n (HI titer = 2^n)) [19] of over 8, an HI titer (hemagglutinin inhibition assay) (n (HI titer = 2^n)) [20] of 7 and an HI titer (hemagglutinin inhibition assay) (n (HI titer = 2^n)) [21] of 5. For the same binder, the HI titer (hemagglutinin inhibition assay) (n (HI titer = 2^n)) [22] was 5.5, the HI titer (hemagglutinin inhibition assay) (n (HI titer = 2^n)) [23] was 3.5 and the HI titer (hemagglutinin inhibition assay) (n (HI titer = 2^n)) [24] was 6. The HI titer (hemagglutinin inhibition assay) (n (HI titer = 2^n)) [25] was over 8, the HI titer (hemagglutinin inhibition assay) (n (HI titer = 2^n)) [26] was 2 and the HI titer (hemagglutinin inhibition assay) (n (HI titer = 2^n)) [27] was 4. The HI titer (hemagglutinin inhibition assay) (n (HI titer = 2^n)) [28] was under 8, the HI titer (hemagglutinin inhibition assay) (n (HI titer = 2^n)) [29] was 6.5 and the HI titer (hemagglutinin inhibition assay) (n (HI titer = 2^n)) [30] was 6. The HI titer (hemagglutinin inhibition assay) (n (HI titer = 2^n)) [31] was 4, the HI titer (hemagglutinin inhibition assay) (n (HI titer = 2^n)) [32] was 4 and the HI titer (hemagglutinin inhibition assay) (n (HI titer = 2^n)) [33] was 5. The HI titer (hemagglutinin inhibition assay) (n (HI titer = 2^n)) [34] was 5, the HI titer (hemagglutinin inhibition assay) (n (HI titer = 2^n)) [35] was 5.5 and the HI titer (hemagglutinin inhibition assay) (n (HI titer = 2^n)) [36] was 6. It also gave an HI titer (hemagglutinin inhibition assay) (n (HI titer = 2^n)) [37] of 3, an HI titer (hemagglutinin inhibition assay) (n (HI titer = 2^n)) [38] of 5 and an HI titer (hemagglutinin inhibition assay) (n (HI titer = 2^n)) [39] of 6.5. For the same binder, the HI titer (hemagglutinin inhibition assay) (n (HI titer = 2^n)) [42] was 1, the HI titer (hemagglutinin inhibition assay) (n (HI titer = 2^n)) [40] was 3 and the HI titer (hemagglutinin inhibition assay) (n (HI titer = 2^n)) [41] was 4.

B5: 13D4 single chain antibody (scFv)
scFv: QVQLQQSGAELMKPGASVKISCKATGYTFSGHWIEWVKQRPGHGLEWIGEILPGSGNIHYNEKFKGKATFAADTSSNTAYMQLSSLTSEDSAVYYCARLGTTAVERDWYFDVWGQGTTVTESLEDPRVPSSNSGGGGSGGGGSGGGGSDIVMTQSQKFMSASVGDRVSVTCKASQNVGTHLAWYQQKPGQSPKALIYSASYRYSGVPDRFTGSGSGTDFTLTISNVQSGDLADYFCQQYNNFPLTFGAGTKLEIKR
Work on B5 yielded a hemagglutination inhibition (HI) activity (fold dilution (from 0.18 mg/ml)) [1] of 8.
